Substitutions are numbered along the chain they refer to.
B1: AMX202.H10: DNA SELEX 1 aptamer clone (nucleic acid)
chain: CTACCTACGATCTGACTAGCGGAATGAGAAGGCTGGTGGATTGCTCAGGTCTGCTGGCTGCTTACTCTCATGTAGTTCC
modifications: DNA, backbone and methylation of C not given here
notes: DNA SELEX 1 aptamer clone
B2: AMX202.A3: DNA SELEX 1 aptamer clone (nucleic acid)
DNA: B1 chain with A30G, G31C, G36A
modifications: DNA, backbone not given here
notes: DNA SELEX 1 aptamer clone
B3: AMX202.D6: DNA SELEX 1 aptamer clone (nucleic acid)
DNA: B1 chain with G36A
modifications: DNA, backbone not given here
notes: DNA SELEX 1 aptamer clone
B4: AMX202.B8: DNA SELEX 1 aptamer clone (nucleic acid)
DNA: B1 chain with A29T, G31T, G36A
modifications: DNA, backbone not given here
notes: DNA SELEX 1 aptamer clone
B5: AMX199.F10: DNA SELEX 1 aptamer clone (nucleic acid)
DNA: CTACCTACGATCTGACTAGCGAAACACTAGGTTGGTTAGGATTGGTGTGTTTCCGTTCTGCTTACTCTCATGTAGTTCC
modifications: DNA, backbone not given here
notes: DNA SELEX 1 aptamer clone
B6: AMX199.F1: DNA SELEX 1 aptamer clone (nucleic acid)
DNA: B5 DNA with T52C, T56C, C58A
modifications: DNA, backbone not given here
notes: DNA SELEX 1 aptamer clone
B7: AMX199.H7: DNA SELEX 1 aptamer clone (nucleic acid)
DNA: B5 DNA with T56C, C58T
modifications: DNA, backbone not given here
notes: DNA SELEX 1 aptamer clone
B8: AMX199.F11: DNA SELEX 1 aptamer clone (nucleic acid)
DNA: B5 DNA with C54T, T56C
modifications: DNA, backbone not given here
notes: DNA SELEX 1 aptamer clone
B9: AMX199.G5: DNA SELEX 1 aptamer clone (nucleic acid)
DNA: B5 DNA with T52C, T56C, T57C
modifications: DNA, backbone not given here
notes: DNA SELEX 1 aptamer clone
B10: AMX199.G4: DNA SELEX 1 aptamer clone (nucleic acid)
DNA: B5 DNA with T52C, T56C, C58A
modifications: DNA, backbone not given here
notes: DNA SELEX 1 aptamer clone
B11: AMX199.G1: DNA SELEX 1 aptamer clone (nucleic acid)
DNA: B5 DNA with T52C, T56C, C58T
modifications: DNA, backbone not given here
notes: DNA SELEX 1 aptamer clone
B12: AMX199.A10: DNA SELEX 1 aptamer clone (nucleic acid)
DNA: B5 DNA with A22G, T52C, C58T
modifications: DNA, backbone not given here
notes: DNA SELEX 1 aptamer clone
B13: AMX199.F6: DNA SELEX 1 aptamer clone (nucleic acid)
DNA: B5 DNA with T52C, T56C
modifications: DNA, backbone not given here
notes: DNA SELEX 1 aptamer clone
B14: AMX199.F8: DNA SELEX 1 aptamer clone (nucleic acid)
DNA: CTACCTACGATCTGACTAGCAAGGGGATTGGCTCCGGGTCTGGCGTGCTTGGCACCTCTGGCTTACTCTCATGTAGTTCC
modifications: DNA, backbone not given here
notes: DNA SELEX 1 aptamer clone
B15: AMX202.A8: DNA SELEX 1 aptamer clone (nucleic acid)
DNA: B14 DNA with T50C, C56T, T59C
modifications: DNA, backbone not given here
notes: DNA SELEX 1 aptamer clone
B16: AMX200.E10: DNA SELEX 1 aptamer clone (nucleic acid)
DNA: B14 DNA with T50C, C58T
modifications: DNA, backbone not given here
notes: DNA SELEX 1 aptamer clone
B17: AMX199.D8: DNA SELEX 1 aptamer clone (nucleic acid)
DNA: B14 DNA with C55T, C58T, T59C
modifications: DNA, backbone not given here
notes: DNA SELEX 1 aptamer clone
B18: AMX199.B6: DNA SELEX 1 aptamer clone (nucleic acid)
DNA: B14 DNA with C53T, T59C
modifications: DNA, backbone not given here
notes: DNA SELEX 1 aptamer clone
B19: AMX202.F6: DNA SELEX 1 aptamer clone (nucleic acid)
DNA: B14 DNA with T50C, C58T, T59C
modifications: DNA, backbone not given here
notes: DNA SELEX 1 aptamer clone
B20: AMX200.A11: DNA SELEX 1 aptamer clone (nucleic acid)
DNA: CTACCTACGATCTGACTAGCTGAGTAGTTAGTAACTTTTTATTATGGTTTGGTGGGTCTGGCTTACTCTCATGTAGTTCC
modifications: DNA, backbone not given here
notes: DNA SELEX 1 aptamer clone
B21: AMX200.H8: DNA SELEX 1 aptamer clone (nucleic acid)
DNA: B20 DNA with T29C, C35T, T57C
modifications: DNA, backbone not given here
notes: DNA SELEX 1 aptamer clone

Experiments:
[1] = target: human vWF A1 domain (SEQ ID NO 5) (Homo sapiens, UniProt P04275, T1381A); assay: 3-point dot blot screen, human vWF A1 domain; assay type: binding; conditions: DNA SELEX 1 aptamers; 100 nM human vWF A1 domain; ratio of fraction bound with target to without
Chain of human vWF A1 domain (SEQ ID NO 5) (P04275 with tags, fused parts or gaps T1381A): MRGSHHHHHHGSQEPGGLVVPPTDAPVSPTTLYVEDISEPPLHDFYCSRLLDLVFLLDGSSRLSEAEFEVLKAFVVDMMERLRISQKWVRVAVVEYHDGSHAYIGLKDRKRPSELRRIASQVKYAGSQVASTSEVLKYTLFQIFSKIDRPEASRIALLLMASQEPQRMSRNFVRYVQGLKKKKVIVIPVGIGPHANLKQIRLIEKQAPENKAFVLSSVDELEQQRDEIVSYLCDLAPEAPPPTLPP
Text: (§1) When a significant positive ratio of binding of RNA in the presence of human or rabbit vWF A1 domain versus in the absence of protein was seen, the pools were cloned using the TOPO TA cloning kit (Invitrogen, Cat. #45-0641, Carlsbad, Calif.) according to the manufacturer's instructions. Round 9 and 12 pool templates were cloned and sequenced (125 total sequences), producing 48 unique clones. All unique clones were transcribed, desalted, 5-^32P end-labeled, and assayed in a 3-point dot blot screen (no protein target control, 100 nM human vWF A1 domain (SEQ ID NO 5, FIG. 3), or 100 nM rabbit vWF A1 domain (SEQ ID NO 6, FIG. 3). The data is presented in the third and fourth columns of Table 4 below as the ratio of the fraction of the aptamer bound to the nitrocellulose in the presence of the target protein to the fraction of aptamer bound in the absence of the target protein.
(§2) When a significant positive ratio of binding of RNA in the presence of human or rabbit vWF A1 domain (SEQ ID NOS 4 and 6, respectively) versus in the absence of protein was seen, the pools were cloned using the TOPO TA cloning kit (Invitrogen Cat. #45-0641, Carlsbad, Calif.) according to the manufacturer's instructions. Round 9 and 12 pool templates were cloned and sequenced (185 total sequences), producing 78 unique clones within 3 sequence families. All unique clones were transcribed, desalted, 5-^32P end-labeled, and assayed in a 3-point dot blot screen (no protein target control, 100 nM human vWF A1 domain (SEQ ID NO 5), or 100 nM rabbit vWF A1 domain (SEQ ID NO 6). The data are presented in the third and fourth columns of Table 9 below as the ratio of the fraction of the aptamer bound to the nitrocellulose in the presence of the target protein to the fraction of aptamer bound in the absence of the target protein. Of the three sequence families, members of Family #1 and #2 and two individual, non-family aptamers, bound to both human vWF domain A1 (SEQ ID NO 5) and rabbit vWF domain A1 (SEQ ID NO 6).
(§3) All unique clones were assayed in a 3-point dot blot screen (no protein target control, 100 nM human vWF A1 domain (SEQ ID NO 5), or 100 nM rabbit vWF A1 domain (SEQ ID NO 6). The data are presented in the third and fourth columns of Table 14 below as the ratio of the fraction of the aptamer bound to the nitrocellulose in the presence of the target protein to the fraction of aptamer bound in the absence of the target protein.

[2] = system: rabbit vWF A1 domain (SEQ ID NO 6); assay: 3-point dot blot screen, rabbit vWF A1 domain; assay type: binding; conditions: DNA SELEX 1 aptamers; 100 nM rabbit vWF A1 domain; ratio of fraction bound with target to without
Chain of rabbit vWF A1 domain (SEQ ID NO 6) (as listed by the source): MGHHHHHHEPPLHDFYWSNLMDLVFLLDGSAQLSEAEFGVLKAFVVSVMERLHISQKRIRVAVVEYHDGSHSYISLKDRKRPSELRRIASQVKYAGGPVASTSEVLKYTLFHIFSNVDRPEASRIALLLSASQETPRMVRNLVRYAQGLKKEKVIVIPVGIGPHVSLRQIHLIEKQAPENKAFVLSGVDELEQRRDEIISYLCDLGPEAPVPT
Text: as §1, §2, §3
When a significant positive ratio of binding of DNA in the presence of human or rabbit vWF A1 domain versus in the absence of protein was seen, the pools were cloned using the TOPO TA cloning kit (Invitrogen Cat. #45-0641, Carlsbad, Calif.) according to the manufacturer's instructions. Round 7 and 11 pool templates were cloned and sequenced (218 total sequences), producing 146 unique clones within 12 sequence families of which sequences from six families show vWF target binding activity. All unique clones were assayed twice in a 3-point dot blot screen (no protein target control, 20 nM full length human vWF (Calbiochem Cat. #681300, La Jolla, Calif.), or 20 nM rabbit vWF A1 domain. The data is presented in the third and fourth columns of Table 17 below as the ratio of the fraction of the aptamer bound to the nitrocellulose in the presence of the target protein to the fraction of aptamer bound in the absence of the target protein.

| Molecule | Screen- Human/No Protein [1] | Screen- Rabbit/No Protein [2] |
| --- | --- | --- |
| B1 | 1.92 | 1.76 |
| B2 | 2.28 | 2.10 |
| B3 | 1.94 | 1.55 |
| B4 | 1.66 | 1.41 |
| B5 | 1.17 | 1.24 |
| B6 | 1.32 | 1.36 |
| B7 | 1.32 | 1.14 |
| B8 | 1.44 | 1.35 |
| B9 | 1.41 | 1.34 |
| B10 | 1.19 | 1.11 |
| B11 | 1.19 | 1.26 |
| B12 | 1.25 | 1.29 |
| B13 | 1.37 | 1.30 |
| B14 | 1.78 | 1.79 |
| B15 | 1.27 | 1.27 |
| B16 | 1.69 | 1.82 |
| B17 | 1.89 | 2.00 |
| B18 | 2.01 | 1.91 |
| B19 | 1.49 | 1.46 |
| B20 | 1.49 | 1.19 |
| B21 | 1.86 | 1.27 |

Reference: patent US7998940B2, “Aptamers to von Willebrand factor and their use as thrombotic disease therapeutics” (Archemix Corp., priority 2004, dated 2011)
